Data taken from the DeepSol protein solubility set.

Experiment: soluble on expression in E. coli; label from the status in PepcDB or PDB records

Soluble on expression in E. coli, not soluble:
MFGMSVFHSVLERLKAEQAEELTNEARGGWRGTVIGAAPGFIAESSAHAWASRGAVEQAYRALAADERSEPFSMPDYLTRTSLAEVASELALGEAETALTLAAKRRRFAAANHPDRLPVEARVNATLRMKLANMLIDEALRRIEKPTVTG
MITFEKVTVENESVVKEMFKSHSLGEKKVQYCVKVDDTYIGVIDYSVQEERAVLSQLIIHFDYQGYGYGTNTYFTFEEMMKQRNVKEIKVLKEKLTEKAKSFIESFGFTSEDEEYVKKI
MPTFSLWLPAGSNNVHPCGDPYAHHLFMRCLYHAKHDPTMKFDVKTTNVNKTSQEFKNTGLRRMPGISAEESGETQTFETEDDILDFLEYLKPERGDDEEAENATCDLFRQFARFVKDVEHRDTAFNTELLRLDKYLSEQETKFLISDDVTHIDCLVLTRLHSIRVAAKMLKNYEIPADLSHVLDYLKAGYATEMFRVSCPSDQEIVLHWTELKDTPRLSAKDRAKLVREEPVFSFSV
MLKCAVDEAAGGRAQAFVSSGDNIGGSPFQSSILGDEPTLEALNQMGLDYSAVGNHEFDKGYADLSSRVADLADFDYLGANVEGENPDLAPYGISHLDGVKVAFVGTVSQETPMLVNSEGIEGITFTDPLEATNRVADELVGSGAADVVVALYHEGITGTEAWSENIDVVFAGHTH
MKTAIVTDSASYLSAADVEKYHIHVVPITVIFGHQTYLENVEITSKEFYERMRTAPELPTTTQITLGQMQTTYDQLAKAGYDAVISIHLSSGITSFITNLESYLPNVTNIKVYPFDSLITAGGEAYMVLLAAKLVTEGYSPEQVIAQLKKIRETTGVYFVVDNLSHLVRTGRLSNASGLVGNLLRIKPVLTFQDGKIVAIQKERTMRRAYAAIKAKLAAEIAAVDYPLRVTIENGNNPKLQAEWTADLKASFPDLTIDEGEIGPVVGVHVGEGVMGLIWARDWEKWTI

Soluble on expression in E. coli, soluble:
MSLTKKELRKEQTNRFIESTIITTDLLLSSYLYDSTKMEEFLSFIANLDNKYSFINMYLVRTQFPGASIVKSYSSWKKENIQVRKNEKGISIFRPKVIEYVVYNNTKVTKDKWTNEIKELVKNNELEVYTYTKGFTLAKVFDISQTTLPKAQYPKQYFSYFIKEDNENINPNTKLLSLLCNFIAKHNIGITYATMGLSTSEQRFYDKNSHGIKHWIRLNDKNSITQNIYSLVKEYAHTLLGHDISAINNIENRYQAQLVAYAICKSFRLKGIELSSFDAFRSWVNTSTKEMRKKWINSVIFASKQFANDFNYFLDEIEINVDKANLRETASINELMGREGHHHHHH
VNKKDITYWEKRQERKYLAGEKKLDEYYKGLQKAFRQAKREIQSVINDFYMRYAKENKVSYAEAQKLLDKAEIGELQDFIDLVNKNMGKYNRKLNNMSIKARITRYQALEKQIDAILQQLYAIEYEYKGKELLKEVYEDSYYRTWFNIDQYHGFHQEFAQINPRTIEELIKYPWNGASFSDRIWKQKDHMLQVLKEDITTMLIQGKNPQTLARDFARRFKTKEYEAYRLLHTESSFIIEQGTLAAYKEDGVEKYQILATLDMRTSDICRSEDGKIYDVDEATVGVNYPPYHPFCRTTTVPYYEDAEVGTRVARDPVTGRSYEVPANMTYEQWKNRYIDQPDNIIRQEILSNPERLDNYSIQHYNKHKEGTKQYEQYKQSRLKKGQTEQSSLLISYDEAKEIIKKYAGTGVFSRDRKGKWRNEEFVDVDSIIGVVHNIDGTVTPTNRIQIKYGKNSVHIVPVLPRKERNK
SDRRTRENPERTFDLVLKVKCHASENEDPEVLWKFPEDFGDQEVLQSVPKFCFPFDVERVSQNQVGQHFTFVLTDMESKQRFGFCRLTSGGRICLCILSYLPWFEVYYKLLNTLADYLAKELEEDLNETLKSLYNHPVPKANTPVNLSVNQELFIASEQVLKDDPSLIPHSCFITPDITGLPTIPESRNLTEYFVAVDVNNMLRLYASMLHERRIIITSSKLSTVSPSHLRL
MSLSQRTYGYGRVSTDEQTTSQQLTAIREAGHKVSDNRFIVDEGVSGGVCAMERPAFRNLVENKLEKGDTLVIAKLDRLGRDNIDVQQVVQMLTDKGIKLFILDLPVADLSSPEGKLMLQMFATFAEFEKNRISERIRDKLKQLKQEGKALGRPTKNVYDDVQELKAQGISQRTIADKLNVSLSTVRRNWVDTKRSLEVVTESGEGHHHHHH
